From patent publication US20220348651A1, “ENTPD2 ANTIBODIES, COMBINATION THERAPIES, AND METHODS OF USING THE ANTIBODIES AND COMBINATION THERAPIES” (Novartis AG, priority 2019, published 2022)

Target: cynomologus (cyno) ENTPD2
Assay: Biacore (SPR) affinity to cyno ENTPD2 ECD
Assay type: binding, cynomolgus monkey
Conditions: 25° C.
Procedure: Biacore Screening: Affinity was measured by determining the kinetic rate constants using surface plasmon resonance (SPR) on a Biacore T200 or T100 with the T200 sensitivity upgrade instrument (Biacore, GE Healthcare). Antibodies were captured on CM5 sensor chips (Biacore, GE Healthcare) prepared with a mouse anti-human IgG Fc antibody (ThermoFisher catalogue #05-4200) amine coupled to the surface. […] ENTPD2 analytes were allowed to associate for 180 s and dissociate for up to 1800 s depending on the off-rate of the antibody at a flow rate of 30 μL/min. The running buffer was PBS pH 7.2 (prepared from a Corning 10X stock, cat#46-013-CM)+0.05% Tween 20. Regeneration was accomplished with 30 s injections of 3 or 4 M MgCl2 to remove all the captured antibody and remaining complex from the surface, after which fresh antibody was captured. The raw data were analyzed using Biacore T200 Evaluation Software version 1.0 and fit to a 1:1 binding model, with all parameters set to fit globally except for RI, which was set to fit locally.

Sequence of cynomologus (cyno) ENTPD2 (as listed by the source): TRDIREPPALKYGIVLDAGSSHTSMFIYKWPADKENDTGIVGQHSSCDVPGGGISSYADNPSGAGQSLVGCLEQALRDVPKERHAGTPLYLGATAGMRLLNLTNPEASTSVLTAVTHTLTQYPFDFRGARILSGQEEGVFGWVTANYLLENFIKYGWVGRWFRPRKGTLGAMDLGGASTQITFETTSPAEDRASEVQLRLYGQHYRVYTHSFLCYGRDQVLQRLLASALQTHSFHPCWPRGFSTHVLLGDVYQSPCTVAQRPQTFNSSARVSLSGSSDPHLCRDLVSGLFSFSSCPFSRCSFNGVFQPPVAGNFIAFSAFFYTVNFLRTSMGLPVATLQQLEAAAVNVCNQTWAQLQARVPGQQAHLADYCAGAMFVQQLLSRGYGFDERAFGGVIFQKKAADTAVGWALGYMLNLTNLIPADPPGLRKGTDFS

Kd: 1.1 nM | kd: 0.0012 s⁻¹
B1: mAb7: humanized anti-human ENTPD2 antibody from mAb17; VH SEQ ID NO: 25, VL SEQ ID NO: 78 (antibody, V domains shown)
VH: QVQLVQSGAEVVKPGASVKISCKASGYTFTDYNMDWVKQAPGQRLEWIGDINPKYDISTYNQQFKGKATITVDKSASTAYMELSSLRSEDTAVYYCARRGFFLYYGINYYYFDVWGQGTLVTVSS
VL: EIVLTQSPATLSASPGEEITLSCSASSSVSYIHWYQQKPGQAPRLLIYSTSNLASGIPARFSGSGSGTFYTLTISSVEPEDAAVYYCHQWSSYPWTFGGGTKLEIK
ka: 1.2e+06 M⁻¹ s⁻¹
